Laboratory results reported in EP2481750A1.

Experiments:
murine B7-DC (murine) [1] = target: murine B7-DC (murine) (UniProt Q9WUL5); experiment: flow cytometry competition on murine bone marrow derived DC; DC preincubated with PD-1.Ig, then stained with sHIgM12
murine B7-DC (murine) [2] = target: murine B7-DC (murine) (UniProt Q9WUL5); experiment: cell-based or functional assay
murine B7-DC (murine) [3] = target: murine B7-DC (murine) (UniProt Q9WUL5); experiment: flow cytometry on 293T cells transfected with murine B7-DC
murine B7-DC (murine) [4] = target: murine B7-DC (murine) (UniProt Q9WUL5); experiment: flow cytometry competition on murine bone marrow derived DC; DC preincubated with sHIgM12, then stained with PD-1.Ig

Chain of murine B7-DC (murine) (Q9WUL5 20-247): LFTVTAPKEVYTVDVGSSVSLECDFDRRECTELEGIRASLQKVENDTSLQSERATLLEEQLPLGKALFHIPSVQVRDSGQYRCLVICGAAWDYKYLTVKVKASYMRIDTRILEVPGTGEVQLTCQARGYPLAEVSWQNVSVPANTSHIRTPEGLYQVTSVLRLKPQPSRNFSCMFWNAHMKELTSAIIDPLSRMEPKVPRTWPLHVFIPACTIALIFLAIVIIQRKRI

sHIgM12 staining remaining (% of the level without PD-1) (murine B7-DC (murine) [1]) | FITC-MFI (uptake of FITC-BSA by bone marrow derived DC in vitro) (murine B7-DC (murine) [2]) | FITC-MFI (uptake of FITC-OVA by splenic DC after treatment in vivo) (murine B7-DC (murine) [2]) | GFP+, CD11c+ DC recovered from draining lymph nodes, against polyclonal HIgM control (murine B7-DC (murine) [2]) | IL-12 p70 release by DC (ELISA), against LPS (murine B7-DC (murine) [2]) | ability of lymph node DC to induce an antigen-specific T cell response (murine B7-DC (murine) [2]) | percentage of cellular metabolism (Alamar Blue) maintained 24 hours after cytokine withdrawal (murine B7-DC (murine) [2]) | percent of transfected cells stained (murine B7-DC (murine) [3]) | PD-1 binding remaining (% of the level without sHIgM12) (murine B7-DC (murine) [4]) | Substance
50% |  |  |  |  |  |  |  |  | PD-1.Ig fusion protein (Fc fusion)
 | 584 MFI | 116 MFI | 5 fold | 3 fold | 10 fold | 80% | 97% | 20% | sHIgM12 (pentameric human monoclonal IgM/kappa antibody, B7-DC cross-linking antibody)
